Source: patent publication US20220256794A1, “TERPENE SYNTHASES AND TRANSPORTERS” (The State of Israel, Ministry of Agriculture & Rural …, priority 2019, published 2022)

B1: 792-3: Cannabis terpene synthase gene product, amino acid SEQ ID NO: 8 (protein)
chain: MSYQVLASSQNDKVSKIVRPTTTYQPSIWGERFLQYSISDQDFSYKKQRVDELKEVVRREVFLECYDNVSYVLKIVDDVQRLGLSYHFENEIEKALQHIYDNTIHQNHKDEDLHDTSTRFRLLRQHGFMVSSNIFKIFKDEQGNFKECLITDILGLLSLYEASHLSYIGENILNEALAFTTTHLHQFVKNEKTHPLSNEVLLALQRPIRKSLERLHARHYISSYENKISHNKTLLELAKLDFNLLQCLHRKELSQISRWWKEIDFVHKLPFARDRIVELYLWLLGVFHEPELSLARIISTKVIALASVADDIYDAYGTFEELELLTESINRWDLNCADQLRPECLQTFYKVLLNCYEEFESELGKEESYKVYYAREAMKRLLGAYFSEARWLHEGYFPSFDEHLKVSLISCGYTMMIVTSLIGMKDCVTKQDFEWLSKDPKIMRDCNILCRFMDDIVSHKFEQQRDHSPSTVESYMRQYGVSEQEACDELRKQVINSWKEINKAFLRPSNVPYPVLSLVLNFSRVMDLLYKDGDGYTHIGKETKNSVVALLIDQIP
modifications: Terpene Synthase Gene Amino acid sequence of the 45 identified gene products
B2: T-790-1: Cannabis ABC-B transporter gene product, amino acid SEQ ID NO: 46 (protein)
chain: MDNKTNKHRGGNGDGDDNEDQDQEDTKKNNNNNNSNKVSLLKLFSFADFYDYVLMGIGTIGAIIHGASVPIFFIFFGKLINVIGMAYLFPKEASHKVAKYSLDFVYLSIAILFSSWTEVACWMHTGERQAAKMRMAYLRAMLSQDISLFDTEASTGEVISAITSDIIVVQDALSEKVGNFLHYISRFVVGFIVGFARVWQISLVTLSIVPLIALAGGVYAYIATGLIARVRKSYVKAGEIAEEVIGNVRTVQAFAGEEKAVKMYTSALAHTYMYGRKAGLAKGLGLGFMHCTLFLSWSLLVWYVSIVVHKSIANGGESFTTMLNVVIAGLSLGQAALDISAFVRAKAAAYPIFAMIERNTASKSSAMSGRKLGKLEGHIQFNNVTFSYPSRPDVTIFNKLSLDIPSGKIVALVGGSGSGKSTVISLIERFYEPLSGEILLDGNNIKELDLKWMRQQIGLVNQEPALFATSIRENILYGKDEASLDEITRAAKLSEAISFINNLPERFETQVGERGIQLSGGQKQRIAISRAIVKNPSILLLDEATSALDAESEKSVQEALDRVMVGRTTVVVAHRLSTIRNADIIAVVQEGKIVETGCHDELISNPNSVYSSLVQLQEAAPLQRNSSLGRPPSIKFSRELSRTTTSFGASFRSDKDSISRVGADGGAVEPVKTTNVSAKRLYSMIGPDWLYGLCGTICAFIAGAQMPLFALGISHALVSYYMDWDTTKHEVKKISILFCCGAVVTVIVHGIEHLCFGTMGERLTLRVRERMFSAMLRNEIAWFDDTNNTSSMLSSRLESDATLLRTIVVDRSTILLQNVGLVVASFIIAFLLNWRITLVVLATYPLVISGHISEKLFMQGYGGNLSKAYLKANMLAGEAVSNIRTVAAFCAEQKVLDLYARELVEPSKRSFTRGQIAGIFYGISQFFIFSSYGLALWYGSVLMGKELSSFKSVMKSFMVLIVTALAMGETLALAPDLLKGNQMVASVFEVLDRKTEVSGDSGEELASVDGTIELRDIHFSYPSRPDVVIFKDFNLKVRSGKSMALVGQSGSGKSSVISIILRFYDPTSGKVLIDGKDMKKLKLKSLRKHIGLVQQEPALFATSIYENILYGKEGASESEVIEAAKLANAHSFISALPEGYSTKVGERGVQLSGGQRQRVAIARAVLKNPEILLLDEATSALDVESERVVQQALDRLMKNRTTIMVAHRLSTIKNADQISVIQDGKIIEQGTHSTLIDNTNGPYYKLINIQQQQQQQL
modifications: ABC+PTR Transporter amino acid sequence (of the 12 identified gene products)
B3: T-AG0100-1: Cannabis PTR/NRT transporter gene product, amino acid SEQ ID NO: 53 (protein)
chain: MNMEVMSRDFDQSGGGKRGGNRAAFFVYIMEGLESMAFISNSASLVIYFFSYMNYSLTKSSTMLTNLLGTATLLSLLGGFISDTYLTRFATTLIFASIELMGYIVLLVQAHRSDLRPPKCLSITHQCEGASAGEAAILYTGLYLMALGTGGVKAALPALGADQFDPKKAKQLSTYFNWFIFSLTIGSILGVTLVVWISTDKGWDWAFAVCAIALLLSIFFISLGNPFYRNNLPKGSPLLRFLRVFVASFRNRKLPIPENADELHEIYQDKEDDNLHHEILQRTDQFKFLDRAAVIRRTEDDDNDGSNSGSEWRVCTVTEVEETKILIRMLPIILTTIFMNTCLAQLQTFSVQQSVTMDRDFIGFEIPGPSVPAIPLLFMFILIPLYDRVFVPIARRVTGIPTGISHLQRIGIGLVLSAISMTVAGFVEKKRRNVAIQHDMVDSQDALPISVFWLGYQYAIFGAADMFTLVGMLEFFYAESSAGMKALSTAISWCSLAFGYYLSSVVVEIVNKVSGGWLANNNLNRDKLENFYWLLAGLSVVNFGVYVMCASWYKYKNVEMIKKDDAST
modifications: ABC+PTR Transporter amino acid sequence (of the 12 identified gene products)

Key:
[1] = Terpene synthase activity assay with FPP; type: biochemical; settings: TPS expressed in E. coli; 10 μM FPP, overnight at 30° C., SPME GC-MS
Experimental: Putative terpene synthase genes were synthesized by the TWIST Co., and cloned into Novagen pET-28a(+) with a 6×His tag at its' N-terminus. The recombinant plasmid was then sequenced for authentication and transformed into BL21(DE3) pLysS and pLysE strains of E. coli (Agilent Technologies) for heterologous expression. An overnight culture was used to inoculate a 20-200 mL culture, induced with 0.1 mM IPTG at an OD 600 nm >0,8 for initiation of recombinant protein translation then incubated at 18° C. and 250 RPM overnight. The cells were collected by centrifugation and the recombinant enzymes were extracted either as a crude extract or purified on a Ni-NTA agarose resin as previously described [Gonda I. et al., The Plant Journal (2013) 61, 458-472]. […]
For solid-phase microextraction (SPME) analysis, a 57298-U SPME fiber assembly Divinylbenzene/Carboxen/Polydimethylsiloxane (DVB/CAR/PDMS, Supelco) needle size 23 ga, StableFlex, was used with an autosampler and analyzed by GC-MS as previously described [Davidovich-Rikanati R. et al., Nature Biotech (2007) 25:899-901; Davidovich-Rikanati R. et al., Plant J (2008) 56:228-238]. […]

yeast cells [2] = test: Uptake of CBD into yeast cells; type: cell-based, Saccharomyces cerevisiae (strain Y1HGold); settings: 0.5 mM CBD, three hour incubation, FIG. 3A and FIG. 4
Experimental: The genes were expressed in yeast and tobacco. For yeast, the ABC and PTR Transporter genes were synthesized by the TWIST Co, cloned and expressed (individually) in the yeast expression vector pESC-URA (Agilent Technologies) for expression under the yeast native gal-10 promoter. Competent Saccharomyces cerevisiae (strain Y1HGold, CloneTech) cells were prepared, transformed by each of the resulting vector and selected on yeast synthetic media lacking Uracil as previously described [GietzR. D., Methods Mol. Biol. (2014) 1205:1-12].
An additional strategy for determining transporter function is to measure the amount of exogenous CBD taken up and incorporated into the cells.
Transformed yeast cells were grown on URA-glucose broth at 30° C. at 200 RPM, and after 24 hours 100 μl was used to inoculate 5 ml of URA-galactose broth in the same conditions till OD600 of […]. The yeast was incubated with 0.5 mM CBD for 2-8 hours in 30° C. at 100 RPM, then centrifuged at 15000 g for 1 minute, and washed twice with 1 ml distilled water. The pellet was weighed and underwent HPLC analysis to determine the pellet's CBD content. The pellet was extracted in 1 ml methanol, and following centrifugation and filter was analyzed by HPLC using a diode-array detector and CBD was quantified against a commercial standard.

yeast cells [3] = test: Yeast growth (turbidity A600) in the presence of CBD; type: cell-based, Saccharomyces cerevisiae (strain Y1HGold); settings: 0.5 mM CBD; for inhibition of yeast growth in response to CBD, transporter-expressing yeast vs control yeast: 7-12 hours, FIG. 2
tobacco BY-2 cells [4] = test: Uptake of CBD into tobacco BY-2 cells; type: cell-based; settings: 0.5 mM CBD
From the text: (§1) For tobacco, the ABC and PTR Transporter genes were cloned into a plant binary expression vector (pGreen 0029) via Agrobacterium mediated transformation as previously described [Cohen, S. et at, Nat. Commun. (2014) 5:4026]. These genes were cloned between the cauliflower mosaic virus (CaMl,) 35S promoter and the polyadenylation signal from the nopaline synthase gene and inserted into tobacco BY2 cells and plants (var. Samson) via stable transformation..
[…] The pellet was weighed and underwent HPLC analysis to determine the pellet CBD content, as indicated above.

tobacco BY-2 cells [5] = test: CBD-induced cell death of tobacco BY-2 cells (FDA fluorescence); type: cell-based; settings: 0.5 mM CBD
From the text: as §1
The toxic effect and cell death activity of terpenes and cannabinoids in tobacco was assessed on cell cultures as follows: 7-day-old suspension cultured BY-2 tobacco cells at a 5-fold dilution in logarithmic growth phase, incubated in Gamborg B5 medium, was incubated in the presence of 0.5 mM CBD for 48 hours as previously described [Sirikantaramas S. et al., Plant Cell Physiol. (2005) 46:1578-1582].
Cell death in the samples was evaluated using the cell viability indicator fluorescein diacetate (FDA, Sigma-Aldrich). Cell suspension (2.5 mL) was stained with 50 μL of 0.5% fluorescein diacetate (FDA) dissolved in acetone for 10 min. The cells were rinsed three times with I mL isotonic medium to remove excess staining solution. Viability was assessed immediately using an Olympus BX50 fluorescence microscope equipped with a suitable barrier filter (excitation 460-490 nm and emission 510 nm). FDA staining of viable cells results in bright green fluorescence, while nonviable cells remain colorless.

Molecule | Sesquiterpenes produced with FPP [1] | net uptake of CBD into yeast cells compared to control (empty vector) yeast (yeast cells [2]) | inhibition of yeast growth in response to CBD, transporter-expressing yeast vs control yeast (yeast cells [3]) | effect on the uptake of CBD in tobacco BY-2 cells (tobacco BY-2 cells [4]; 5 hour uptake, FIG. 7) | fluorescence (FDA viability) of transporter-expressing BY2 cells in the presence of CBD (tobacco BY-2 cells [5]; FIG. 6A bottom) | cell death in response to CBD of BY-2 cells expressing the transporter (tobacco BY-2 cells [5]; FIGS. 6A-B) | growth inhibition by CBD, time course of yeast growth vs empty vector yeast (yeast cells [3]; 12 hour period, FIGS. 1A-B) | effect on the uptake of CBD in tobacco BY-2 cells (tobacco BY-2 cells [4]; 4 hour uptake, FIG. 5)
B1 | caryophyllene, humulene | – | – | – | – | – | – | –
B2 | – | reduced net uptake of CBD | reduced inhibition of growth | strong effect | – | – | – | –
B3 | – | reduced net uptake of CBD | reduced inhibition of growth | – | strong decrease | increased cell death | reduced growth inhibition | strong effect
